Experimental data reported in patent publication US9512196B2, “Short-form human MD-2 as a negative regulator of toll-like receptor 4 signaling” (Cedars-Sinai Medical Center, priority 2008, dated 2016).

T1: MD-2 (Homo sapiens, UniProt Q9Y6Y9)
T1 construct: expressed in transfected cells; host or cells: HEK293
T1 sequence (Q9Y6Y9 19-160): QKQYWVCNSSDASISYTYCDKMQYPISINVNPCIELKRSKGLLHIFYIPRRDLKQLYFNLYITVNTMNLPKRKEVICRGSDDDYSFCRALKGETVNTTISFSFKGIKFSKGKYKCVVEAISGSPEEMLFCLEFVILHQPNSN

B1: MD-2s: alternatively spliced isoform of human MD-2 lacking exon 2, with D38G substitution; expressed and secreted protein sequences in Table 1 (protein, listed as Homo sapiens)
chain 1: MLPFLFFSTLFSSIFTEAQKQYWVCNSSDASISYTYCGRDLKQLYFNLYITVNTMNLPKRKEVICRGSDDDYSFCRALKGETVNTTISFSFKGIKFSKGKYKCVVEAISGSPEEMLFCLEFVILHQPNSN
chain 2: EAQKQYWVCNSSDASISYTYCGRDLKQLYFNLYITVNTMNLPKRKEVICRGSDDDYSFCRALKGETVNTTISFSFKGIKFSKGKYKCVVEAISGSPEEMLFCLEFVILHQPNSN

Experiments:
TLR4-expressing cells = assay: Surface staining of TLR4-mCitrine HEK293T cells (flow cytometry, confocal imaging); type: cell-based, human; conditions: myc-tagged protein transfected into TLR4-mCitrine HEK293T cells
Text: HEK293T cells stably expressing fluorescent TLR4-mCitrine were transiently transfected with myc-tagged wild-type MD-2 or MD-2s and surface-stained with anti-myc antibody. (a) Cells analyzed by flow cytometry were gated to select single cells and the TLR4-positive population. Anti-myc staining of TLR4-mCitrine positive cells expressing MD-2 (top panel, thick line) or MD-2s (middle panel, thick line) and untransfected cells (thin line) is shown. […] Co-localization of TLR4 and MD-2 isoforms on the cell surface is visualized in yellow.
HEK293T cells were retrovirally transduced to generate a cell line stably expressing TLR4-mCitrine. TLR4-mCitrine cells in 12-well dishes were transfected with 300 ng of plasmid encoding myc-tagged MD2 or MD2S using GeneJuice lipofection reagent (Novagen) and cultured overnight. Cells were dislodged by scraping, washed once with cold PBS and incubated with a 1:50 dilution of anti-myc Alexa 647-conjugated antibody (AbD Serotec) at 4° C. for 30 minutes. Cells were washed four times with PBS for and fluorescence was assessed with an LSR II flow cytometer (BD Biosciences) running FACS Diva software (BD Biosciences). Data was processed using FlowJo software v8.6.3 (Tree Star).
TLR4-mCitrine cells were cultured on glass-bottom confocal dishes (MatTek) coated with collagen. […]

MD-2 = target: T1, MD-2; assay: Co-immunoprecipitation with Flag-tagged wild-type MD-2 in HEK293 cells; type: binding; conditions: Myc-tagged protein with Flag-tagged MD-2, co-immunoprecipitation
Method: (A) HEK293 cells were transiently transfected with plasmids encoding for Flag-tagged MD-2 (lanes 1-4) in combination with either a Myc-tagged MD-2 (lanes 1 and 3) or a Myc-tagged MD-2s (lanes 2 and 4) expressing plasmid. Co-immunoprecipitation experiments were then performed using an anti-Flag antibody (lanes 3-4) or an IgG isotype control antibody (lane 1-2). Samples were fractionated by SDS-PAGE and immunoblotting with an anti-Myc antibody was performed. (B) Structural analysis of MD-2. Structural features representing the TLR4 binding sites (red); the ligand contacts (dark blue); the ligand binding pocket (light blue) and the TLR4 secondary contacts (pink) are illustrated. The residues deleted in MD-2s (yellow) are also shown. (C) HEK293 cells were transiently transfected with plasmids encoding for Myc-tagged MD-2 (lanes 3 and 4) or a Myc-tagged MD-2s (lanes 5 and 6) expressing plasmid and treated with LPS-biotin as indicated. Co-immunoprecipitation experiments were then performed using an anti-Myc antibody. […]
HEK 293 cells were seeded into 100 mm dishes (1.5×10^6) 24 h prior to transfection. […] For immunoblotting, primary antibodies were detected using horseradish peroxidase-conjugated secondary antibodies, followed by enhanced chemiluminescence (Amersham Biosciences). […]

[1] = Biotin-LPS binding, immunoprecipitation from culture supernatants; conditions: culture supernatants incubated with biotin-LPS, anti-Myc immunoprecipitation
Method: (A) HEK293 cells were transiently transfected with plasmids encoding for Flag-tagged MD-2 (lanes 1-4) in combination with either a Myc-tagged MD-2 (lanes 1 and 3) or a Myc-tagged MD-2s (lanes 2 and 4) expressing plasmid. Co-immunoprecipitation experiments were then performed using an anti-Flag antibody (lanes 3-4) or an IgG isotype control antibody (lane 1-2). Samples were fractionated by SDS-PAGE and immunoblotting with an anti-Myc antibody was performed. (B) Structural analysis of MD-2. Structural features representing the TLR4 binding sites (red); the ligand contacts (dark blue); the ligand binding pocket (light blue) and the TLR4 secondary contacts (pink) are illustrated. The residues deleted in MD-2s (yellow) are also shown. (C) HEK293 cells were transiently transfected with plasmids encoding for Myc-tagged MD-2 (lanes 3 and 4) or a Myc-tagged MD-2s (lanes 5 and 6) expressing plasmid and treated with LPS-biotin as indicated. Co-immunoprecipitation experiments were then performed using an anti-Myc antibody. Samples were fractionated by SDS-PAGE and immunoblotting with an anti-biotin (upper panel) and anti-Myc antibody (lower panel) were performed.
To address this possibility, HEK293 cells were transiently transfected with plasmids encoding either MD-2 or MD-2s. Culture supernatants were then incubated with biotin-LPS and Myc-tagged proteins were immunoprecipitated.

Molecule	Binding to the surface of TLR4-expressing cells (TLR4-expressing cells)	Interaction with wild-type MD-2 (MD-2)	Binding of secreted protein to LPS [1]
MD-2: full-length human wild-type MD-2, co-receptor of TLR4 [reference compound]	bind to the surface of TLR4-expressing cells	can homodimerise	bound readily to LPS
B1	bind to the surface of TLR4-expressing cells	associates with wild-type MD-2	interaction between secreted MD-2s and LPS was also detected
